# According to PMC11187563, “The importance of tyrosines in multimers of cyclic RGD nonapeptides: towards αvβ6-integrin targeted radiotherapeutics” (RSC Medicinal Chemistry, 2024):
# Where two headings read alike, the source gives them in different places.
# Columns and labels:
# [1] = Ex vivo biodistribution of 177Lu-labeled peptide tetramers in H2009 xenografted SCID mice; conditions: CB17 SCID, mouse, iv, total radioactivity, H2009 bearing SCID mice; for tissue uptake at 1.5 h / tissue to tissue ratio at 1.5 h: 43 pmol, 90 min p.i.; for tissue uptake at 72 h / tissue to tissue ratio at 72 h: 64 pmol, 3 d p.i.
# Procedure, shortened: (§1)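 SCID mice carried subcutaneous H2009 xenografts on the right shoulder. 177Lu-labeled conjugates were injected i.v., and ex vivo organ distribution was measured at two time points post-injection.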
# [2] = test system: αvβ6-integrin expressing human lung adenocarcinoma cell line H2009 xenografts; experiment: as above; conditions: H2009 bearing SCID mice
# Procedure, shortened: as §1
# [3] = H2009 tumor, read-out: Tumor H2009 %IA/g
# [4] = adrenals, read-out: Adrenals %IA/g
# [5] = heart (myocard), read-out: Heart (myocard) %IA/g
# [6] = kidneys, read-out: Kidneys %IA/g
# [7] = large intestine (empty), read-out: Large intestine (empty) %IA/g
# [8] = pancreas, read-out: Pancreas %IA/g
# [9] = small intestine (empty), read-out: Small intestine (empty) %IA/g
# [10] = stomach (empty), read-out: Stomach (empty) %IA/g
# [11] = tumor/blood, read-out: tumor/organ ratio, Blood
# [12] = tumor/heart (myocard), read-out: tumor/organ ratio, Heart (myocard)
# [13] = tumor/liver, read-out: tumor/organ ratio, Liver
# [14] = tumor/lung, read-out: tumor/organ ratio, Lung
# [15] = tumor/pancreas, read-out: tumor/organ ratio, Pancreas
# [16] = tumor/spleen, read-out: tumor/organ ratio, Spleen
smiles,measurement,setting,value
"CC(C)C[C@@H]1NC(=O)[C@H](CC(=O)O)NC(=O)CNC(=O)[C@H](CCCNC(=N)N)NC(=O)[C@H](Cc2ccccc2)NC(=O)[C@H](CCCCNC(=O)CCc2cn(CCCNC(=O)CCP(=O)(O)CN3CCN(CP(=O)(O)CCC(=O)NCCCn4cc(CCC(=O)NCCCC[C@H]5C(=O)N[C@@H](Cc6ccccc6)C(=O)N[C@@H](CCCNC(=N)N)C(=O)NCC(=O)N[C@@H](CC(=O)O)C(=O)N[C@@H](CC(C)C)C(=O)N[C@@H](C)C(=O)N[C@@H](Cc6ccc(O)cc6)C(=O)N6CCC[C@@H]6C(=O)N5C)nn4)CCN(CP(=O)(O)CCC(=O)NCCCn4cc(CCC(=O)NCCCC[C@H]5C(=O)N[C@@H](Cc6ccccc6)C(=O)N[C@@H](CCCNC(=N)N)C(=O)NCC(=O)N[C@@H](CC(=O)O)C(=O)N[C@@H](CC(C)C)C(=O)N[C@@H](C)C(=O)N[C@@H](Cc6ccc(O)cc6)C(=O)N6CCC[C@@H]6C(=O)N5C)nn4)CCN(CP(=O)(O)CCC(=O)NCCCn4cc(CCC(=O)NCCCC[C@H]5C(=O)N[C@@H](Cc6ccccc6)C(=O)N[C@@H](CCCNC(=N)N)C(=O)NCC(=O)N[C@@H](CC(=O)O)C(=O)N[C@@H](CC(C)C)C(=O)N[C@@H](C)C(=O)N[C@@H](Cc6ccc(O)cc6)C(=O)N6CCC[C@@H]6C(=O)N5C)nn4)CC3)nn2)N(C)C(=O)[C@H]2CCCN2C(=O)[C@H](Cc2ccc(O)cc2)NC(=O)[C@H](C)NC1=O [Compound 177Lu-Y4, metal not drawn]",tissue uptake at 1.5 h,[1]; [3],6.91 %ID/g
same,tissue uptake at 72 h,[1]; [3],2.07 %ID/g
same,tissue uptake at 1.5 h,[1]; [4],0.52 %ID/g
same,tissue uptake at 72 h,[1]; [4],0.9 %ID/g
same,tissue uptake at 1.5 h,"[1]; blood, read-out: Blood %IA/g",1.33 %ID/g
same,tissue uptake at 72 h,"[1]; blood, read-out: Blood %IA/g",0.02 %ID/g
same,tissue uptake at 1.5 h,"[1]; bone, read-out: Bone %IA/g",1.84 %ID/g
same,tissue uptake at 72 h,"[1]; bone, read-out: Bone %IA/g",0.55 %ID/g
same,tissue uptake at 1.5 h,[1]; [5],0.74 %ID/g
same,tissue uptake at 72 h,[1]; [5],0.27 %ID/g
same,tissue uptake at 1.5 h,[1]; [6],219 %ID/g
same,tissue uptake at 72 h,[1]; [6],203 %ID/g
same,tissue uptake at 1.5 h,[1]; [7],6.99 %ID/g
same,tissue uptake at 72 h,[1]; [7],1.33 %ID/g
same,tissue uptake at 1.5 h,"[1]; liver, read-out: Liver %IA/g",1.06 %ID/g
same,tissue uptake at 72 h,"[1]; liver, read-out: Liver %IA/g",0.88 %ID/g
same,tissue uptake at 1.5 h,"[1]; lung, read-out: Lung %IA/g",6.74 %ID/g
same,tissue uptake at 72 h,"[1]; lung, read-out: Lung %IA/g",1.21 %ID/g
same,tissue uptake at 1.5 h,"[1]; muscle, read-out: Muscle %IA/g",1 %ID/g
same,tissue uptake at 72 h,"[1]; muscle, read-out: Muscle %IA/g",0.28 %ID/g
same,tissue uptake at 1.5 h,[1]; [8],0.37 %ID/g
same,tissue uptake at 72 h,[1]; [8],0.19 %ID/g
same,tissue uptake at 1.5 h,[1]; [9],3.05 %ID/g
same,tissue uptake at 72 h,[1]; [9],0.26 %ID/g
same,tissue uptake at 1.5 h,"[1]; spleen, read-out: Spleen %IA/g",4.71 %ID/g
same,tissue uptake at 72 h,"[1]; spleen, read-out: Spleen %IA/g",1.31 %ID/g
same,tissue uptake at 1.5 h,[1]; [10],10.7 %ID/g
same,tissue uptake at 72 h,[1]; [10],3.88 %ID/g
same,tissue to tissue ratio at 72 h,"[1]; tumor / adrenals, read-out: tumor/organ ratio, Adrenals",4.1
same,tissue to tissue ratio at 72 h,"[1]; tumor / bone, read-out: tumor/organ ratio, Bone",3.8
same,tissue to tissue ratio at 72 h,"[1]; tumor / large intestine (empty), read-out: tumor/organ ratio, Large intestine (empty)",1.6
same,tissue to tissue ratio at 72 h,"[1]; tumor / muscle, read-out: tumor/organ ratio, Muscle",9.1
same,tissue to tissue ratio at 72 h,"[1]; tumor / small intestine (empty), read-out: tumor/organ ratio, Small intestine (empty)",8.2
same,tissue to tissue ratio at 72 h,"[1]; tumor / stomach (empty), read-out: tumor/organ ratio, Stomach (empty)",0.6
same,tissue to tissue ratio at 1.5 h,"[1]; tumor/adrenals, read-out: tumor/organ ratio, Adrenals",13.9
same,tissue to tissue ratio at 1.5 h,[1]; [11],5.2
same,tissue to tissue ratio at 72 h,[1]; [11],108
same,tissue to tissue ratio at 1.5 h,"[1]; tumor/bone, read-out: tumor/organ ratio, Bone",3.8
same,tissue to tissue ratio at 1.5 h,[1]; [12],9.6
same,tissue to tissue ratio at 72 h,[1]; [12],8.2
same,tissue to tissue ratio at 1.5 h,"[1]; tumor/large intestine (empty), read-out: tumor/organ ratio, Large intestine (empty)",1
same,tissue to tissue ratio at 1.5 h,[1]; [13],6.6
same,tissue to tissue ratio at 72 h,[1]; [13],2.6
same,tissue to tissue ratio at 1.5 h,[1]; [14],1
same,tissue to tissue ratio at 72 h,[1]; [14],1.7
same,tissue to tissue ratio at 1.5 h,"[1]; tumor/muscle, read-out: tumor/organ ratio, Muscle",8.2
same,tissue to tissue ratio at 1.5 h,[1]; [15],18.6
same,tissue to tissue ratio at 72 h,[1]; [15],11.3
same,tissue to tissue ratio at 1.5 h,"[1]; tumor/small intestine (empty), read-out: tumor/organ ratio, Small intestine (empty)",2.6
same,tissue to tissue ratio at 1.5 h,[1]; [16],1.5
same,tissue to tissue ratio at 72 h,[1]; [16],1.7
same,tissue to tissue ratio at 1.5 h,"[1]; tumor/stomach (empty), read-out: tumor/organ ratio, Stomach (empty)",0.7
same,"tumor/organ ratio, Kidneys",[2]; 90 min p.i.,0.0
same,"tumor/organ ratio, Kidneys",[2]; 3 d p.i.,0.0
